What all share (assay): competitive ELISA, mean of three experiments
In general terms: In an ELISA, binding on a coated surface is turned into a signal by an enzyme label.

Assay [1] has as its target HLA-DR4 (human).
For assay [2], the target named is HLA-DRB4 (human).
Assay [3] concerns the target HLA-DR15 (human).
Assay [4] concerns the target HLA-DRB5 (human).
For assay [5], the target named is HLA-DRB3 (human).
The target in assay [6] is HLA-DR7 (human).
Assay [7] concerns the target HLA-DR1 (human).

B1: UCP2 (TERT578-592) (peptide)
peptide: KSVWSKLQSIGIRQH
notes: Synthetic 15-mer (>80% purity, Activotec) derived from human TERT; also called UCP578; p578
B1: the “relative affinity (RA, IC50 of UCP / IC50 of reference peptide)” value in assay [1] is 112 ratio; in assay [2], 229 ratio; in assay [3], 8 ratio; in assay [4], 1 ratio; in assay [5], 154 ratio; in assay [6], 1 ratio. Also, in assay [7], the “relative affinity (RA, IC50 of UCP / IC50 of reference peptide)” value came out at 0.2 ratio.

B2: UCP1 (TERT44-58) (peptide)
peptide: PAAFRALVAQCLVCV
notes: Synthetic 15-mer (>80% purity, Activotec) derived from human TERT; also called UCP44; p44
In the case of B2, the “relative affinity (RA, IC50 of UCP / IC50 of reference peptide)” value was 50 ratio in assay [1]; 4 ratio in assay [2]; 4 ratio in assay [3]; 1 ratio in assay [4]; 30 ratio in assay [5]; 3 ratio in assay [6]. The “relative affinity (RA, IC50 of UCP / IC50 of reference peptide)” value in assay [7] was 3 ratio.

B3: UCP4 (TERT1041-1055) (peptide)
peptide: SLCYSILKAKNAGMS
notes: Synthetic 15-mer (>80% purity, Activotec) derived from human TERT; also called UCP1041; p1041
For the molecule B3, the “relative affinity (RA, IC50 of UCP / IC50 of reference peptide)” value in assay [1] is 34 ratio; in assay [3], 3 ratio; in assay [4], 0.5 ratio; in assay [5], 154 ratio; in assay [6], 8 ratio; in assay [7] it was 0.3 ratio.

These data come from patent US20150283219A1 (INVECTYS, published 2015).
